From the RNAGym collection of RNA variant scans (doi:10.7554/elife.80360) come the findings set out here.

First the molecules themselves.
B1: Twister Ribozyme (parent)
chain: AACACUGCCAAUGCCGGUCCCAAGCCCGGAUAAAAGUGGAGGGGGCGG

The data set covers variants of B1. Description: self-cleavage, relative activity (ratio to wild type); higher = more cleavage; co-transcriptional.
C14G G43A: the self-cleavage amounted to 0.0789. Regarding G13U A33G, the self-cleavage came out at 0.68. Turning to G13U A33U, the self-cleavage was determined as 0.403. The same measure for C14G G47U: 0.0804; for C14G G47C: 0.0728; for G13U A23C: 0.0557. Regarding G13U A23U, the self-cleavage is 0.0818.

For U12C G44C, the self-cleavage is 0.932. For the variant C14G A32U, the self-cleavage is 0.184. Consider G13U G16U, for which the self-cleavage was 0.253.

For G13U G16C, the self-cleavage was 0.094. With C14A C21G, the self-cleavage came out at 0.1. Regarding C14A C21A, the self-cleavage was found to be 0.128.

For U12G G28C, the self-cleavage was determined as 0.344. As to C14A G39A, the self-cleavage worked out at 0.409. In the case of C14A G24U it was 0.146. For the variant C14A G24C, the self-cleavage worked out at 0.0765.

For the variant C14A G24A, the self-cleavage is 0.18. On to U12C G41A, for which the self-cleavage is 0.577. As to U12C G41C, the self-cleavage was determined as 0.264. With C14A U37A, the self-cleavage was 0.711. As to G13C C19G, the self-cleavage was found to be 0.125.

As for G13C C19U, the self-cleavage came to 0.0706. For the variant G13U G36U, the self-cleavage is 0.107. For the variant G13A G44A, the self-cleavage came out at 1.04. Regarding G13A G44U, the self-cleavage was determined as 0.845. The same measure for G13A G44C: 0.746; for G13C A34U: 0.137; for G13C A34C: 0.0766. Consider G13C A34G, for which the self-cleavage stood at 0.253. For the variant C14G C19A, the self-cleavage came out at 0.0588. Turning to C14G C19G, the self-cleavage turned out to be 0.078. Take G13A U31C: the self-cleavage stood at 0.962. In the case of G13A U31G, the self-cleavage is 1.01.

Consider G13U A35G, for which the self-cleavage was determined as 0.127. On to C14A A32C, for which the self-cleavage came out at 0.914. C14A A32U: the self-cleavage worked out at 0.848.

As for G13U G44A, the self-cleavage came to 0.821. On to G13U G44U, for which the self-cleavage was found to be 0.428.

G13C U37C: the self-cleavage is 0.116. As for G13C U37G, the self-cleavage was 0.125. As for G13A A35U, the self-cleavage is 0.978. On to G13A A35G, for which the self-cleavage was 0.203.

Take G13A A35C: the self-cleavage turned out to be 1.02. The same measure for C14G A35C: 0.244; for C14G A35G: 0.138; for G13U G38A: 0.226.

Turning to G13C A22C, the self-cleavage was 0.71. In the case of C14A G17A it was 0.457; in that of C14A G17C, 0.12; in that of G13A C19A, 0.113.

Take G13A C19U: the self-cleavage came to 0.284.

In the case of U12C U31A, the self-cleavage is 0.78. The same measure for U12C U31G: 0.954; for G13C G29A: 0.411; for G13C G29U: 0.46. The same measure for G13C G29C: 0.477; for G13U A40G: 0.152; for G13U A32U: 0.489.

For the variant G13U A32G, the self-cleavage was determined as 0.354. Regarding G13A C15U, the self-cleavage worked out at 0.579. G13A C15G: the self-cleavage amounted to 0.118. Regarding C14G G44U, the self-cleavage is 0.125. On to C14G G44A, for which the self-cleavage was found to be 0.174. On to C14G C15G, for which the self-cleavage came to 0.243. Consider C14G C15A, for which the self-cleavage was determined as 0.644. For U12G G16C, the self-cleavage was 0.753. Regarding U12G G48U, the self-cleavage was determined as 0.789.

Take G13C A32U: the self-cleavage is 0.108. Turning to U12G G45U, the self-cleavage was 0.419.

Regarding U12G G45C, the self-cleavage is 0.288. On to G13A A23C, for which the self-cleavage was determined as 0.093. As to G13U C20U, the self-cleavage stood at 0.134. In the case of G13U G47C, the self-cleavage stood at 0.179.

For the variant G13U G47A, the self-cleavage stood at 0.228. Take C14A C19U: the self-cleavage was 1.07.

Regarding C14A C19A, the self-cleavage is 0.366. The same measure for C14A C19G: 0.359; for C14G A23G: 0.103; for C14G G29A: 0.182.

U12G G13A: the self-cleavage was found to be 1.14. As for U12G G13C, the self-cleavage was found to be 1.05.

For the variant U12G G13U, the self-cleavage amounted to 0.836. In the case of G13A A33G, the self-cleavage stood at 0.943.

Regarding G13A A33C, the self-cleavage stood at 0.825. Take C14G G41A: the self-cleavage is 0.103. On to C14G G16A, for which the self-cleavage is 0.0993. C14G G16C: the self-cleavage stood at 0.143. Consider G13A G24C, for which the self-cleavage turned out to be 0.129. Turning to G13A G24A, the self-cleavage worked out at 0.0967. Take G13A G24U: the self-cleavage is 0.13. For G13A G17A, the self-cleavage was 0.121. With U12C U37C, the self-cleavage worked out at 0.624.

Regarding U12G U31C, the self-cleavage amounted to 0.907. With U12G U31A, the self-cleavage was 0.746.

On to U12G U31G, for which the self-cleavage came to 0.834.

Regarding U12C G45A, the self-cleavage stood at 0.788. For the variant U12G A30C, the self-cleavage is 0.969.

On to C14A U31A, for which the self-cleavage amounted to 0.796. Turning to U12G G24U, the self-cleavage came out at 0.167. G13U G42U: the self-cleavage was determined as 0.114.

Take G13U G42A: the self-cleavage came out at 0.139.

Regarding G13U G42C, the self-cleavage came to 0.181. With G13C G45A, the self-cleavage is 0.209. Consider G13C G45C, for which the self-cleavage is 0.138. In the case of C14G C25G, the self-cleavage amounted to 0.0771.

Regarding C14G C25U, the self-cleavage is 0.0566. In the case of C14A C26A, the self-cleavage came out at 0.38. In the case of C14A C26U, the self-cleavage turned out to be 0.247.

With G13A A22C, the self-cleavage is 1.05. Turning to G13A A22U, the self-cleavage turned out to be 0.424. With G13C A33G, the self-cleavage amounted to 0.676.

As for G13C A33U, the self-cleavage is 0.335.

With U12G C46A, the self-cleavage was determined as 0.706. Turning to U12G C46U, the self-cleavage was 0.866.

Consider C14G G38A, for which the self-cleavage was determined as 0.127.

Regarding U12C G43C, the self-cleavage came to 0.145. For G13A G42C, the self-cleavage worked out at 0.34.

Regarding G13A G42U, the self-cleavage worked out at 0.191. The same measure for U12G G47C: 0.528.

Regarding U12G A23U, the self-cleavage came out at 0.566. In the case of U12G A23C, the self-cleavage was 0.401. Regarding G13A G43A, the self-cleavage amounted to 0.14. C14A G42U: the self-cleavage was found to be 0.368.

Take C14A G42A: the self-cleavage stood at 0.417. For the variant C14A G42C, the self-cleavage was found to be 0.363. With G13U G41C, the self-cleavage stood at 0.149. Regarding G13U G29C, the self-cleavage is 0.555.

For the variant G13U G29U, the self-cleavage is 0.588.

In the case of U12G G29U, the self-cleavage worked out at 0.823. Take G13C C26G: the self-cleavage came to 0.101.

On to G13C G28A, for which the self-cleavage stood at 0.307.

Consider G13C G28U, for which the self-cleavage worked out at 0.255. In the case of G13C G28C, the self-cleavage turned out to be 0.31. As for G13C C15G, the self-cleavage is 0.0922. Turning to G13C C15A, the self-cleavage was 0.0696. For the variant G13C G17A, the self-cleavage is 0.0829. For the variant C14A G45C, the self-cleavage was 0.58. With C14A G45A, the self-cleavage is 0.801. As for G13C G42C, the self-cleavage is 0.166. Consider G13C G42U, for which the self-cleavage came out at 0.112. Turning to G13U G43C, the self-cleavage worked out at 0.137. G13U G43U: the self-cleavage was 0.155. As to C14G A33G, the self-cleavage turned out to be 0.0896. C14G A33C: the self-cleavage turned out to be 0.176. G13A G47C: the self-cleavage was found to be 0.272. On to G13A G47A, for which the self-cleavage was found to be 0.457. For G13A U18A, the self-cleavage amounted to 0.0831. Turning to C14G G48C, the self-cleavage was found to be 0.163. Consider C14G G48A, for which the self-cleavage came to 0.0949. In the case of C14G U18G, the self-cleavage amounted to 0.0282. The same measure for C14G U18A: 0.0727; for C14G U18C: 0.074.

Regarding C14A G44C, the self-cleavage turned out to be 0.772. For C14A G44A, the self-cleavage is 0.838. In the case of G13C C25G, the self-cleavage turned out to be 0.101. In the case of G13C C25U it was 0.163; in that of C14A G47A, 0.749; in that of C14A G47U, 0.66.

As for U12G G17C, the self-cleavage turned out to be 0.0934. Take U12G G17A: the self-cleavage worked out at 0.577. Regarding C14G G42C, the self-cleavage worked out at 0.095.

For G13A G39C, the self-cleavage was 0.168. As to G13U G17C, the self-cleavage was 0.0903. In the case of C14G G45C, the self-cleavage stood at 0.0594. With C14G G45A, the self-cleavage was found to be 0.113. As to C14G G45U, the self-cleavage stood at 0.101.
